Results from patent US20230277633.

B1: protease IdeS (protein)
chain: DSFSANQEIRYSEVTPYHVTSVWTKGVTPPANFTQGEDVFHAPYVANQGWYDITKTFNGKDDLLCGAATAGNMLHWWFDQNKDQIKRYLEEHPEKQKINFNGEQMFDVKEAIDTKNHQLDSKLFEYFKEKAFPYLSTKHLGVFPDHVIDMFINGYRLSLTNHGPTPVKEGSKDPRGGIFDAVFTRGDQSKLLTSRHDFKEKNLKEISDLIKKELTEGKALGLSHTYANVRINHVINLWGADFDSNGNLKAIYVTDSDSNASIGMKKYFVGVNSAGKVAISAKEIKEDNIGAQVLGLFTLSTGQDSWNQTNHHHHHHSSG
B2: protease IdeE (protein)
chain: DDYQRNATEAYAKEVPHQITSVWTKGVTPLTPEQFRYNNEDVIHAPYLAHQGWYDITKAFDGKDNLLCGAATAGNMLHWWFDQNKTEIEAYLSKHPEKQKIIFNNQELFDLKAAIDTKDSQTNSQLFNYFRDKAFPNLSARQLGVMPDLVLDMFINGYYLNVFKTQSTDVNRPYQDKDKRGGIFDAVFTRGDQTTLLTARHDLKNKGLNDISTIIKQELTEGRALALSHTYANVSISHVINLWGADFNAEGNLEAIYVTDSDANASIGMKKYFVGINAHRHVAISAKKIEGENIGAQVLGLFTLSSGKDIWQKLSHHHHHH

Assays:
[1] = test system: human IVIg (an intravenous human immunoglobulin)
[2] = target: human IVIg (an intravenous human immunoglobulin); remark: listed apart in the source

| Molecule | enzymatic digestion of human IVIg in vitro, SDS-PAGE (10 ug IVIg per 1 Unit IdeZ, 37 C, 1 h) [1] | enzymatic digestion of human IVIg in vitro, SDS-PAGE (enzyme:IVIg 1:200 by mass, 37 C, 1 h) [2] |
| --- | --- | --- |
| protease IdeZ (Genovis) | all the three proteases can effectively cleave human IVIg |  |
| B1 |  | all the three proteases can effectively cleave human IVIg |
| B2 |  | all the three proteases can effectively cleave human IVIg |
